Test results from patent US20190134153A1, “IMMUNOMODULATORY EFFECT OF INHALED KINASE INHIBITOR PEPTIDES IN LUNG” (MOERAE MATRIX, INC., priority 2017, published 2019).

How the values were obtained:
Experiment in all cases: Kinase Profiling Assay
Format in all cases: biochemical
Settings in all cases: 100 μM
TAO2(h) = target: T1, TAO2(h) (Homo sapiens, UniProt Q9UL54)
T1 sequence (Q9UL54 1-1235): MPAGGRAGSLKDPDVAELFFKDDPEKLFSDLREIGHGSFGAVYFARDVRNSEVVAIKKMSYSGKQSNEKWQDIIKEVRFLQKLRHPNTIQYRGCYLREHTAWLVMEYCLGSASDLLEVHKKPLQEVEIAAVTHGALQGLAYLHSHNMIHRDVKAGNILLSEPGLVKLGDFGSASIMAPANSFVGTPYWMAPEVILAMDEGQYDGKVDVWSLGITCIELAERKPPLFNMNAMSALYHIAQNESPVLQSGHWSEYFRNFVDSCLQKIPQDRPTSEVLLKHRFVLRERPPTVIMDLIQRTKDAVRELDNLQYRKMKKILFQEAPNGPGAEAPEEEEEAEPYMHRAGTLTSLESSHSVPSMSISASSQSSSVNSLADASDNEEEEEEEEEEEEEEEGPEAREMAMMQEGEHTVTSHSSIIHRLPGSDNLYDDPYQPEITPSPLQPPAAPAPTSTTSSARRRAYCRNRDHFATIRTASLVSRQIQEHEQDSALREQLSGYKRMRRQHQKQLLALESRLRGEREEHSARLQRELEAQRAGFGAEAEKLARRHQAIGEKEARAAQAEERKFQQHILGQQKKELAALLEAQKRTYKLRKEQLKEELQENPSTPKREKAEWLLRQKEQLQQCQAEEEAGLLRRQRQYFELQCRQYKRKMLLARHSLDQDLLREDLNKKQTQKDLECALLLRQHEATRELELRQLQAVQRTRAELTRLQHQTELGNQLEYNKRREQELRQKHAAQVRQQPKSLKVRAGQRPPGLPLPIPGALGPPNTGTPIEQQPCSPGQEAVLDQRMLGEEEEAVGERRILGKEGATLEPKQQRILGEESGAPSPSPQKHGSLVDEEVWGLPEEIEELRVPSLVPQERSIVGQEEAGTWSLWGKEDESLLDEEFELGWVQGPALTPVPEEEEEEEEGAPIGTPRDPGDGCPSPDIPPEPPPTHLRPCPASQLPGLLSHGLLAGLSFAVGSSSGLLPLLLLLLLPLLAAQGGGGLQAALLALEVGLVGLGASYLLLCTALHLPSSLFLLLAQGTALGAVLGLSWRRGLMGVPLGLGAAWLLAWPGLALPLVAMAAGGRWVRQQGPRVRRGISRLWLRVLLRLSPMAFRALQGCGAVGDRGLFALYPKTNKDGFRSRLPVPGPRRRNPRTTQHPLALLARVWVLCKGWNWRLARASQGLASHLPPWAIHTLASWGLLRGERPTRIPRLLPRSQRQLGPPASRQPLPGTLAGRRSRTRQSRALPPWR

CaMKIδ(h) = CaMKIδ(h) (Homo sapiens, UniProt Q8IU85)
GRK7(h) = target: T2, GRK7(h) (Homo sapiens, UniProt Q8WTQ7)
T2 sequence (Q8WTQ7 1-553): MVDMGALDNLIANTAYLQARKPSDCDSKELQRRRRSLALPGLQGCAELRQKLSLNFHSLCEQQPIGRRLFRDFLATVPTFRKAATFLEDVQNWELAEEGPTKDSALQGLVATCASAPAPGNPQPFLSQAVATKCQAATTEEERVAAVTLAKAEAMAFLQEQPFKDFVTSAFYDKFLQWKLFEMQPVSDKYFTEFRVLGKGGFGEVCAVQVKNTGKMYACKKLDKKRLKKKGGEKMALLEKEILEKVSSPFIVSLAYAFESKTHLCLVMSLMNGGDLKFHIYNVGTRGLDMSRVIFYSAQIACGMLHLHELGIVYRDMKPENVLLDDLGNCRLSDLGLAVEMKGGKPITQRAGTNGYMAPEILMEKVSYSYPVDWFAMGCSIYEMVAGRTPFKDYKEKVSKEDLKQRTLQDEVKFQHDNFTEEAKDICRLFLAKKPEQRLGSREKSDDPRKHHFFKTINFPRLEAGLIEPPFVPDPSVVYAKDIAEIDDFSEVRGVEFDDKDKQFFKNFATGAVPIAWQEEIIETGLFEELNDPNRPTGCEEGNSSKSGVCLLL

PrKX(h) = target: T3, PrKX(h) (Homo sapiens, UniProt P51817)
T3 sequence (P51817 1-358): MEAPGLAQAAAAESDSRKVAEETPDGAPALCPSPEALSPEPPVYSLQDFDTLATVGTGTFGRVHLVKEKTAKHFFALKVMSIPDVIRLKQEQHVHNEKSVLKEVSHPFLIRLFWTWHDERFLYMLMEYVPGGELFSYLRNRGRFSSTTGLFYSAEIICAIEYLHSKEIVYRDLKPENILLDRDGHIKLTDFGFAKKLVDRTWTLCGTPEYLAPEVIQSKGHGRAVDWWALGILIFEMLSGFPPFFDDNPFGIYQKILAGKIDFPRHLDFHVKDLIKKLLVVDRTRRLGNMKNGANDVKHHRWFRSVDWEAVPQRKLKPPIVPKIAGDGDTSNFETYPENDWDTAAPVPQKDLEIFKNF

PKCδ(h) = PKCδ(h) (Homo sapiens, UniProt Q05655)
CDK1/cyclinB(h) = CDK1/cyclinB(h) (Homo sapiens, UniProt P06493)
Flt3(h) = Flt3(h) (Homo sapiens, UniProt P36888)

PKCδ(h), sequence (Q05655 whole entry): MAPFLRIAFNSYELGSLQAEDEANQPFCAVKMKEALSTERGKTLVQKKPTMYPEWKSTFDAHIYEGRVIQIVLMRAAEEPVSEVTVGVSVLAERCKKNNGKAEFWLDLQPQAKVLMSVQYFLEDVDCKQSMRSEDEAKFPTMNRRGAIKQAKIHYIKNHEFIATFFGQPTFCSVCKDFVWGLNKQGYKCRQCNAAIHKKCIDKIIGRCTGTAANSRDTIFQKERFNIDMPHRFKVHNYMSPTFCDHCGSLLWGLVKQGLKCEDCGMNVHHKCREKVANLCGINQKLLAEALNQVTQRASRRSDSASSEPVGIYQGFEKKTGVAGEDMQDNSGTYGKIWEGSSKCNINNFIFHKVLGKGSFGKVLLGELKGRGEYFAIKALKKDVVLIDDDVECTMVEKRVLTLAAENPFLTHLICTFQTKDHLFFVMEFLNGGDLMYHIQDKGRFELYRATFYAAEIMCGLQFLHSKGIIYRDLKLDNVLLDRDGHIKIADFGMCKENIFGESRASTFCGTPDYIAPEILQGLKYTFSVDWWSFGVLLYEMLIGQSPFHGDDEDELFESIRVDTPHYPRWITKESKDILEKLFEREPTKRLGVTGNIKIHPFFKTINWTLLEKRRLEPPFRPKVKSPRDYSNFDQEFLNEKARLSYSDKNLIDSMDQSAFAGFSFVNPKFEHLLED
CDK1/cyclinB(h), sequence (P06493 whole entry): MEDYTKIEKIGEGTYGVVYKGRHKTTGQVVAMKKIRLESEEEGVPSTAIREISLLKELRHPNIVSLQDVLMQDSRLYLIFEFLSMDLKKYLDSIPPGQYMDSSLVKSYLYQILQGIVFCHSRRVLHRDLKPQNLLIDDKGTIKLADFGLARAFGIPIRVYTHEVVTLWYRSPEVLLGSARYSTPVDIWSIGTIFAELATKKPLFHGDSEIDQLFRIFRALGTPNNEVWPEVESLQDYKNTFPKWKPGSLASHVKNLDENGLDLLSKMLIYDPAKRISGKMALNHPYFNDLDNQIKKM
CDK1/cyclinB(h), sequence (P14635 whole entry partner): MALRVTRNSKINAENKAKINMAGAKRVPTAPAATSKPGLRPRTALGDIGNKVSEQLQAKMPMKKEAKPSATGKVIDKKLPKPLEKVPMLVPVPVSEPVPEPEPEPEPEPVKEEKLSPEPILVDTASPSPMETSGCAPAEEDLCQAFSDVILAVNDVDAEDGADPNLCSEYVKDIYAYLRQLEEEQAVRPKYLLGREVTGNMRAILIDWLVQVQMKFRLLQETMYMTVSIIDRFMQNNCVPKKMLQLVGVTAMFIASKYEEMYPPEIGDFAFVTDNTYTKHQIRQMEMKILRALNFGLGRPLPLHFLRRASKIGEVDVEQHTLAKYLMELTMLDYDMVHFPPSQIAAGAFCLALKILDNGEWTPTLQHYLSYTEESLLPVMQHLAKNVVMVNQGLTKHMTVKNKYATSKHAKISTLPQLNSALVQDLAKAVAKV
CaMKIδ(h), sequence (Q8IU85 whole entry): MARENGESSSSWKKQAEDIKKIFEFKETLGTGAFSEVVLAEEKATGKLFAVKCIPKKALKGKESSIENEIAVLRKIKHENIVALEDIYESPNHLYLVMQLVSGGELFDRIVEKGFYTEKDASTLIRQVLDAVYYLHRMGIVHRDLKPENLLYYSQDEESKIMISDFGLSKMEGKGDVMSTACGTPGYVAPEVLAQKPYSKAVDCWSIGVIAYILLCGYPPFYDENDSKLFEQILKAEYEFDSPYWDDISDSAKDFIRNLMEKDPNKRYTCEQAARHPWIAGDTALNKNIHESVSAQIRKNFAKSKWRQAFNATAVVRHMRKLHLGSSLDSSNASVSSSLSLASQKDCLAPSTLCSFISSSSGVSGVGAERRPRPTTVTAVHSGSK

Sequence	% activity (TAO2(h))	% activity (CaMKIδ(h))	% activity (GRK7(h))	% activity (PrKX(h))	% activity (PKCδ(h))	% activity (CDK1/cyclinB(h))	% activity (Flt3(h))
FAKLAARLYRKALARQLGVAA [MMI-0300]	70%	10%	122%	61%	101%	73%	84%
YARAAARQARAKALNRQLGVA [MMI-0200]	93%	47%	124%		101%		99%
KAFAKLAARLYRKALARQLGVAA [MMI-0400]	74%	17%	100%	76%	90%	74%	18%
HRRIKAWLKKIKALARQLGVAA [MMI-0500]	15%	0%	93%	57%	61%	57%	17%
